Experimental data: patent US20180155451A1 (published 2018)
Residue numbers refer to the chain shown, from its start. In names and notes the source's numbering stands. Like-named read-outs stand apart in the source and are kept apart here.

B1: H240-AK072/H240-BH076/L73-k0 (antibody, human IgG1, kappa)
heavy 1: QDQLVQSGAEVKKPGASVKVSCKASGFNIKDTYIQWVRQAPGQGLEWMGRIDPLRKQTKYREKFEGRVTITADTSTNTAYMELSSLRSEDTAVYYCVRSGREFDYWGQGTLVTVSSASTKGPSVFPLAPSSKSTSGGTAALGCLVKDYFPEPVTVSWNSGALTSGVHTFPAVLQSSGLYSLSSVVTVPSSSLGTQTYICNVNHKPSNTKVDKKVEPKSCDKTHTCPPCPAPEYYWGPSVFLFPPKPKDTLMISRTPEVTCVVVDVSDEEPEVKFNWYVDGVEVHNAKTKPREEQYNATYRVVSVLTVLHQDWLNGKEYKCKVSNKALPAPIEKTISKAKGQPREPQVYTLPPSRKEMTKNQVSLTCLVKGFYPSDIAVEWESNGQPENNYKTTPPVLDSDGSFFLYSKLTVDKSRWQQGNVFSCSVMHEALHNRYTQKSLSLSP
heavy 2: QDQLVQSGAEVKKPGASVKVSCKASGFNIKDTYIQWVRQAPGQGLEWMGRIDPLRKQTKYREKFEGRVTITADTSTNTAYMELSSLRSEDTAVYYCVRSGREFDYWGQGTLVTVSSASTKGPSVFPLAPSSKSTSGGTAALGCLVKDYFPEPVTVSWNSGALTSGVHTFPAVLQSSGLYSLSSVVTVPSSSLGTQTYICNVNHKPSNTKVDKKVEPKSCDKTHTCPPCPAPELLGGPSVFLFPPKPKDTLMISRTPEVTCVVVDVSHEEPEVKFNWYVDGVEVHNAKTKPREEQYNSTYRVVSVLTVLHQDWLNGKEYKCKVSNDALPMPIEETISKAKGQPREPQVYTLPPSREEMTKNQVSLTCLVKGFYPSDIAVEWESNGQPENNYKTTPPVLDSDGSFFLYSKLTVDKSRWQQGNVFSCSVMHEALHNHYTQESLSLSP
light: DIQMTQSPSSLSASVGDRVTITCRASQDIHKYIAWYQQKPGQAPRLLIQYTSTLQPGVPSRFSGSGSGTDYTFTISSLQPEDIATYYCLQYEQLRTFGGGTKVEIKRTVAAPSVFIFPPSDEQLKSGTASVVCLLNNFYPREAKVQWKVDNALQSGNSQESVTEQDSKDSTYSLSSTLTLSKADYEKHKVYACEVTHQGLSSPVTKSFNRGEC
notes: Heterodimerized anti-EREG IgG1 made with D356K/H435R and K439E in place of knobs-into-holes
B2: IL6R-BP256/IL6R-L (antibody, human IgG1, kappa)
heavy: QVQLQESGPGLVKPSETLSLTCAVSGHSISHDHAWSWVRQPPGEGLEWIGFISYSGITNYNPSLQGRVTISRDNSKNTLYLQMNSLRAEDTAVYYCARSLARTTAMDYWGEGTLVTVSSASTKGPSVFPLAPSSKSTSGGTAALGCLVKDYFPEPVTVSWNSGALTSGVHTFPAVLQSSGLYSLSSVVTVPSSSLGTQTYICNVNHKPSNTKVDKKVEPKSCDKTHTCPPCPAPDLLGDDDVFLFPPKPKDTLMISRTPEVTCVVVDVSDEDGEVKFNWYVDGVEVHNAKTKPREEQYNSTYRVVSVLTVLHQDWLNGKEYKCKVSNKALPRPIEKTISKAKGQPREPQVYTLPPSRDELTKNQVSLTCLVKGFYPSDIAVEWESNGQPENNYKTTPPVLDSDGSFFLYSKLTVDKSRWQQGNVFSCSVMHEALHNHYTQESLSLSP
light: not shown
notes: Homodimerized antibody; IL6R-BP256 is IL6R-BP208 with S239D
B3: IL6R-AP002/IL6R-BP256/IL6R-L (antibody, human IgG1, kappa)
heavy 1: B2 heavy with D241S, D358K, H437R, E441K
heavy 2: B2 heavy
light: not shown
notes: Heterodimerized antibody with S239D in one H chain only; IL6R-AP002 is IL6R-A5 (IL6R-G1d with D356K and H435R) with E233D, G237D, P238D, H268D, P271G and A330R
B4: IL6R-AP002/IL6R-BP257/IL6R-L (antibody, human IgG1, kappa)
heavy 1: B2 heavy with D241S, D358K, H437R, E441K
heavy 2: B2 heavy with D241E
light: not shown
notes: Heterodimerized antibody with S239E in one H chain only

Assays:
FcgRIa = target: T1, FcgRIa (human, UniProt P12314 16-292); test: SPR (Biacore), antibody captured on chip, FcgR extracellular domain as analyte
T1 construct: extracellular domain; Expressed in FreeStyle293 cells and purified; used as analyte in Biacore; also called FcγRIa; FcγRI; not shown: His tag attached to the C terminus
T1 sequence (P12314 16-292): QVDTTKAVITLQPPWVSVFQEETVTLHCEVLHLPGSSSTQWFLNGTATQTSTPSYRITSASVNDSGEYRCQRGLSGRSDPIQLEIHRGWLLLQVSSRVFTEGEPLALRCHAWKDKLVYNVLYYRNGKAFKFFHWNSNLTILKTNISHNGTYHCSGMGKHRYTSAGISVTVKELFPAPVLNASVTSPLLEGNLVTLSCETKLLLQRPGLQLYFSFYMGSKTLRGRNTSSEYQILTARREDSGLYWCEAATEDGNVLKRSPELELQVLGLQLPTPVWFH
Method: (§1) Analysis of interaction between obj ective antibody and the FcγR was carried out using Biacore T100 (GE Healthcare), Biacore T200, Biacore A100, and Biacore 4000. HBS-EP+ (GE Healthcare) was used as the running buffer, and the measurement temperature was set to 25° C. Chips produced by immobilizing the antigen peptide by the amine coupling method to a Series S sensor Chip CM5 (GE Healthcare), chips produced by allowing preliminarily biotinylated antigen peptides to interact with and immobilize onto a Series S Sensor Chip SA (certified) (GE Healthcare), chips produced by immobilizing Protein L (ACTIGEN, BioVision) to Series S Sencor Chip CM5 (GE Healthcare), or chips produced by immobilizing Protein A/G (Thermo Scientific) to Series S Sencor Chip CM5 (GE Healthcare) were used. Antibodies of interest were captured onto these chips, and allowed to interact to each FcγR diluted with running buffer. To regenerate and repeatedly use the chip, the antibodies captured onto the chip were washed off by reacting 10 mM glycine-HCl, pH 1.5.

FcgRIIIa F [1] = target: T2, FcgRIIIa F (human, UniProt P08637 17-208); test: as above
T2 construct: extracellular domain; also called FcγRIIIa F; not shown: His tag attached to the C terminus
T2 sequence (P08637 17-208): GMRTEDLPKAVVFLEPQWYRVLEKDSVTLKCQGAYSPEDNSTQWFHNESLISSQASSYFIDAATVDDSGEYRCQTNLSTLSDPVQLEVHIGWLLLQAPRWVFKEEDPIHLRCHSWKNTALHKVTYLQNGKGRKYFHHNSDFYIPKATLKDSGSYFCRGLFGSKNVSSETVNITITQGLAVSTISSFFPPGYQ
Method: as §1

FcgRIIa R = target: T3, FcgRIIa R (human, UniProt P12318 34-217); test: as above
T3 construct: extracellular domain; also called FcγRIIa R; FcγRIIa type R; not shown: His tag attached to the C terminus
T3 sequence (looked up): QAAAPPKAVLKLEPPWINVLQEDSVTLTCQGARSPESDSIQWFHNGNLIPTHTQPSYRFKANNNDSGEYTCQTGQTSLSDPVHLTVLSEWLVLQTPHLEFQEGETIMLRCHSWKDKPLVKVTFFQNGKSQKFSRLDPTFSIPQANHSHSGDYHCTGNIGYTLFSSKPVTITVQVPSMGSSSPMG
Method: as §1

FcgRIIa H = target: T4, FcgRIIa H (human, UniProt P12318 34-217); test: as above
T4 construct: extracellular domain; also called FcγRIIa H; FcγRIIa type H; not shown: His tag attached to the C terminus
T4 sequence (looked up): T3 sequence (looked up) with R134H
Method: as §1

FcgRIIb = target: T5, FcgRIIb (human, UniProt P31994 43-217); test: as above
T5 construct: extracellular domain; Expressed in FreeStyle293 cells and purified; used as analyte in Biacore; also called FcγRIIb; CD32B; not shown: His tag attached to the C terminus
T5 sequence (looked up): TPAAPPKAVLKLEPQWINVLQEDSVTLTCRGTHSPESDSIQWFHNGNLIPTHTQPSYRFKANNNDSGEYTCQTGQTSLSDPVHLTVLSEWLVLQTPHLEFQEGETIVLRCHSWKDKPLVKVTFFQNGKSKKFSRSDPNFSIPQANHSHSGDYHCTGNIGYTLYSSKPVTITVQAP
Method: as §1

FcgRIIIa V [2] = target: T6, FcgRIIIa V (human, UniProt P08637 17-208); test: as above
T6 construct: extracellular domain; also called FcγRIIIa V; not shown: His tag attached to the C terminus
T6 sequence (P08637 17-208 F176V limits assumed): as the sequence (P08637 17-208) above, with F160V counted along it
Method: as §1

FcgRIIIa F [3] = target: T2, FcgRIIIa F; test: as above; remark: listed apart in the source
Method: (§2) Similarly, H240-AK072 and L73-k0, and H240-BH076 and L73-k0 were each combined to express and prepare the homodimerized antibodies H240-AK072/L73-k0 and H240-BH076/L73-k0. The antibodies were compared for the binding to each FcgR according to the method described in Reference Example 8.
as §1

FcgRIIIa V [4] = target: T6, FcgRIIIa V; test: as above; remark: listed apart in the source
Method: as §2, §1

[5] = target: T7, FcgRIIa type H extracellular domain with C-terminal His tag (human, UniProt P12318 34-217); test: SPR (Biacore), antibody captured on chip, soluble FcgR as analyte; too weak for kinetics, KD from steady-state 1:1 equation
T7 construct: extracellular domain; also called FcgRIIaH; FcgRIIa H; not shown: His tag at the C terminus
T7 sequence (looked up): T3 sequence (looked up) with R134H
Method: (§3) KD can be calculated by substituting the values of Rmax, RI, and C into this equation. The values of RI and C can be determined from the sensorgram of the measurement results and measurement conditions. Rmax was calculated according to the following method.

[6] = target: T8, FcgRIIIa type V extracellular domain with C-terminal His tag (human, UniProt P08637 17-208); test: as above
T8 construct: extracellular domain; also called FcgRIIIaV; FcgRIIIa V; not shown: His tag at the C terminus
T8 sequence (P08637 17-208 F176V): as the sequence (P08637 17-208) above, with F160V counted along it
Method: as §3

[7] = target: T7, FcgRIIa type H extracellular domain …; test: SPR (Biacore); KD of IL6R-B3/IL6R-L for this FcgR divided by KD of the sample
Method: as §1

[8] = target: T9, FcgRIIa type R extracellular domain with C-terminal His tag (human, UniProt P12318 34-217); test: as above
T9 construct: extracellular domain; also called FcgRIIaR; FcgRIIa R; not shown: His tag at the C terminus
T9 sequence (looked up): T3 sequence (looked up)
Method: as §1

[9] = target: T10, FcgRIIb extracellular domain with C-terminal His tag (human, UniProt P31994 43-217); test: as above
T10 construct: extracellular domain; Expressed in FreeStyle293 cells; also called FcγRIIb; 2b; not shown: His tag at the C terminus
T10 sequence (looked up): T5 sequence (looked up)
Method: as §1

[10] = target: T10, FcgRIIb extracellular domain with …; test: SPR (Biacore); KD of the sample for FcgRIIaR divided by its KD for FcgRIIb (selectivity for FcgRIIb)
Method: as §1

[11] = target: T11, FcgRIa extracellular domain with C-terminal His tag (human, UniProt P12314 16-292); test: SPR (Biacore), antibody captured on chip, soluble FcgR as analyte, kinetic 1:1 fit
T11 construct: extracellular domain; Expressed in FreeStyle293 cells; also called FcγRIa; not shown: His tag at the C terminus
T11 sequence (P12314 16-292): as the sequence (P12314 16-292) above
Method: (§4) The variants were assessed for the binding activity to FcgR Ia, FcgR IIaR, FcgR IIaH, and FcgRIIb according to the method described in Reference Example 8.
as §1

[12] = target: T9, FcgRIIa type R extracellular domain …; test: as above
Method: as §4, §1

[13] = target: T10, FcgRIIb extracellular domain with …; test: as above
Method: as §4, §1

[14] = target: T7, FcgRIIa type H extracellular domain …; test: as above
Method: as §4, §1

| Binder | Kd (FcgRIa) | Kd (FcgRIIIa F [1]) | Kd (FcgRIIa R) | Kd (FcgRIIa H) | Kd (FcgRIIb) | Kd (FcgRIIIa V [2]) | Kd (FcgRIIIa F [3]) | Kd (FcgRIIIa V [4]) | Kd [5] | Kd [6] | Relative KD [7] | Relative KD [8] | Relative KD [9] | KD(IIaR)/KD(IIb) [10] | Kd [11] | Kd [12] | Kd [13] | Kd [14] |
| --- | --- | --- | --- | --- | --- | --- | --- | --- | --- | --- | --- | --- | --- | --- | --- | --- | --- | --- |
| B1 | 0.24 nM | 3.7 nM | 460 nM | 130 nM | 2900 nM | 0.98 nM | 3.7 nM | 0.98 nM |  |  |  |  |  |  |  |  |  |  |
| B2 |  |  |  |  |  |  |  |  | 21 µM | 11 µM | 0 ratio | 1.5 ratio | 35.7 ratio | 8.4 ratio | 2 nM | 730 nM | 87 nM |  |
| B3 |  |  |  |  |  |  |  |  |  | 17 µM | 0.2 ratio | 7.7 ratio | 752 ratio | 34.3 ratio | 3.6 nM | 140 nM | 4.1 nM | 4.2 µM |
| B4 |  |  |  |  |  |  |  |  |  | 14 µM | 0.2 ratio | 8.3 ratio | 657 ratio | 27.7 ratio | 1.9 nM | 130 nM | 4.7 nM | 4.9 µM |
